This is an account of results in the Human Domainome abundance scans (Beltran et al. 2025).

± gives the uncertainty stated by the source.

This data set in a line: abundance fitness (aPCA) (normalised: wild type 0, dead -1); higher = more abundant; growth selection in yeast, the domain comes from the species named. As to conditions: Homo sapiens.
“DnaJ homolog subfamily B member 1 R25A, P25685” showed an abundance fitness of 0.011 ± 0.079.

“DnaJ homolog subfamily B member 1 R25C, P25685”: the abundance fitness is -0.22 ± 0.14.

Substance “DnaJ homolog subfamily B member 1 R25D, P25685” showed an abundance fitness of -0.15 ± 0.13.

Substance “DnaJ homolog subfamily B member 1 R25E, P25685” had an abundance fitness of 0.173 ± 0.082.

For the substance “DnaJ homolog subfamily B member 1 R25F, P25685”, the abundance fitness is -0.199 ± 0.12.

In turn, “DnaJ homolog subfamily B member 1 R25G, P25685” returned an abundance fitness of -0.007 ± 0.12.

The substance “DnaJ homolog subfamily B member 1 R25H, P25685” displayed an abundance fitness of -0.047 ± 0.11.

“DnaJ homolog subfamily B member 1 R25I, P25685”: the abundance fitness worked out at 0.008 ± 0.13.

Take “DnaJ homolog subfamily B member 1 R25K, P25685”: the abundance fitness is -0.022 ± 0.057.

Turning to “DnaJ homolog subfamily B member 1 R25M, P25685”, the abundance fitness is -0.078 ± 0.12.

In turn, “DnaJ homolog subfamily B member 1 R25N, P25685” displayed an abundance fitness of -0.144 ± 0.29.

Turning to “DnaJ homolog subfamily B member 1 R25P, P25685”, the abundance fitness was -0.462 ± 0.12.

Turning to “DnaJ homolog subfamily B member 1 R25S, P25685”, the abundance fitness was determined as 0.018 ± 0.076.

As to “DnaJ homolog subfamily B member 1 R25T, P25685”, the abundance fitness was -0.181 ± 0.11.

“DnaJ homolog subfamily B member 1 R25V, P25685” gave an abundance fitness of 0.003 ± 0.062.

For the substance “DnaJ homolog subfamily B member 1 R25W, P25685”, the abundance fitness was -0.116 ± 0.092.

Regarding “DnaJ homolog subfamily B member 1 R26A, P25685”, the abundance fitness was 0.056 ± 0.18.

In turn, “DnaJ homolog subfamily B member 1 R26C, P25685” yielded an abundance fitness of 0.064 ± 0.11.

Turning to “DnaJ homolog subfamily B member 1 R26D, P25685”, the abundance fitness stood at 0.327 ± 0.25.

On to “DnaJ homolog subfamily B member 1 R26F, P25685”, for which the abundance fitness is -0.032 ± 0.094.

Turning to “DnaJ homolog subfamily B member 1 R26G, P25685”, the abundance fitness was -0.117 ± 0.094.

As for “DnaJ homolog subfamily B member 1 R26H, P25685”, the abundance fitness is 0.163 ± 0.11.

For the substance “DnaJ homolog subfamily B member 1 R26I, P25685”, the abundance fitness turned out to be 0.071 ± 0.16.

For the substance “DnaJ homolog subfamily B member 1 R26K, P25685”, the abundance fitness worked out at 0.052 ± 0.18.

Consider “DnaJ homolog subfamily B member 1 R26L, P25685”, for which the abundance fitness is 0.068 ± 0.075.

Substance “DnaJ homolog subfamily B member 1 R26M, P25685” yielded an abundance fitness of -0.121 ± 0.13.

As to “DnaJ homolog subfamily B member 1 R26N, P25685”, the abundance fitness turned out to be 0.102 ± 0.17.

“DnaJ homolog subfamily B member 1 R26P, P25685”: the abundance fitness was -0.628 ± 0.1.

For the substance “DnaJ homolog subfamily B member 1 R26Q, P25685”, the abundance fitness is -0.019 ± 0.22.

Consider “DnaJ homolog subfamily B member 1 R26S, P25685”, for which the abundance fitness came to 0.064 ± 0.068.

Substance “DnaJ homolog subfamily B member 1 R26T, P25685” returned an abundance fitness of -0.128 ± 0.12.

“DnaJ homolog subfamily B member 1 R26V, P25685”: the abundance fitness came out at 0.03 ± 0.15.

“DnaJ homolog subfamily B member 1 R26W, P25685”: the abundance fitness is -0.023 ± 0.081.

“DnaJ homolog subfamily B member 1 R26Y, P25685”: the abundance fitness was -0.344 ± 0.19.

For the substance “DnaJ homolog subfamily B member 1 R30A, P25685”, the abundance fitness is 0.033 ± 0.072.

On to “DnaJ homolog subfamily B member 1 R30C, P25685”, for which the abundance fitness is 0.042 ± 0.16.

As to “DnaJ homolog subfamily B member 1 R30E, P25685”, the abundance fitness was found to be 0.047 ± 0.24.

On to “DnaJ homolog subfamily B member 1 R30F, P25685”, for which the abundance fitness is -0.024 ± 0.089.

In turn, “DnaJ homolog subfamily B member 1 R30G, P25685” displayed an abundance fitness of -0.056 ± 0.11.

Turning to “DnaJ homolog subfamily B member 1 R30H, P25685”, the abundance fitness is -0.125 ± 0.088.

In turn, “DnaJ homolog subfamily B member 1 R30I, P25685” yielded an abundance fitness of -0.036 ± 0.095.

On to “DnaJ homolog subfamily B member 1 R30K, P25685”, for which the abundance fitness was -0.086 ± 0.098.

“DnaJ homolog subfamily B member 1 R30L, P25685” yielded an abundance fitness of 0.081 ± 0.067.

On to “DnaJ homolog subfamily B member 1 R30M, P25685”, for which the abundance fitness was determined as 0.104 ± 0.089.

On to “DnaJ homolog subfamily B member 1 R30N, P25685”, for which the abundance fitness came to 0.014 ± 0.1.

The substance “DnaJ homolog subfamily B member 1 R30Q, P25685” gave an abundance fitness of 0.087 ± 0.11.

In turn, “DnaJ homolog subfamily B member 1 R30S, P25685” gave an abundance fitness of -0.024 ± 0.073.

For “DnaJ homolog subfamily B member 1 R30T, P25685”, the abundance fitness is -0.026 ± 0.1.

Substance “DnaJ homolog subfamily B member 1 R30Y, P25685” displayed an abundance fitness of 0.131 ± 0.087.

Take “DnaJ homolog subfamily B member 1 R59A, P25685”: the abundance fitness is -0.051 ± 0.086.

“DnaJ homolog subfamily B member 1 R59C, P25685” showed an abundance fitness of -0.128 ± 0.14.

“DnaJ homolog subfamily B member 1 R59D, P25685” came in with an abundance fitness of 0.095 ± 0.21.

Take “DnaJ homolog subfamily B member 1 R59E, P25685”: the abundance fitness was determined as 0.026 ± 0.099.

“DnaJ homolog subfamily B member 1 R59F, P25685” returned an abundance fitness of -0.045 ± 0.15.

Substance “DnaJ homolog subfamily B member 1 R59G, P25685” showed an abundance fitness of -0.065 ± 0.084.

In turn, “DnaJ homolog subfamily B member 1 R59H, P25685” yielded an abundance fitness of -0.167 ± 0.11.

“DnaJ homolog subfamily B member 1 R59I, P25685” returned an abundance fitness of -0.232 ± 0.15.

As to “DnaJ homolog subfamily B member 1 R59K, P25685”, the abundance fitness was -0.104 ± 0.11.

“DnaJ homolog subfamily B member 1 R59L, P25685” had an abundance fitness of -0.186 ± 0.099.

“DnaJ homolog subfamily B member 1 R59M, P25685”: the abundance fitness was -0.256 ± 0.19.

As to “DnaJ homolog subfamily B member 1 R59N, P25685”, the abundance fitness is -0.068 ± 0.14.

For “DnaJ homolog subfamily B member 1 R59P, P25685”, the abundance fitness is -0.4 ± 0.15.

“DnaJ homolog subfamily B member 1 R59Q, P25685” had an abundance fitness of -0.194 ± 0.13.

As for “DnaJ homolog subfamily B member 1 R59S, P25685”, the abundance fitness was -0.036 ± 0.081.

Consider “DnaJ homolog subfamily B member 1 R59T, P25685”, for which the abundance fitness worked out at 0.07 ± 0.1.

The substance “DnaJ homolog subfamily B member 1 R59V, P25685” registered an abundance fitness of -0.059 ± 0.071.

For the substance “DnaJ homolog subfamily B member 1 R59W, P25685”, the abundance fitness was -0.186 ± 0.14.

For “DnaJ homolog subfamily B member 1 R61A, P25685”, the abundance fitness was -0.596 ± 0.16.

“DnaJ homolog subfamily B member 1 R61C, P25685” came in with an abundance fitness of -0.325 ± 0.15.

For “DnaJ homolog subfamily B member 1 R61D, P25685”, the abundance fitness was -0.668 ± 0.18.

“DnaJ homolog subfamily B member 1 R61E, P25685” gave an abundance fitness of -0.362 ± 0.11.

“DnaJ homolog subfamily B member 1 R61F, P25685” returned an abundance fitness of -0.756 ± 0.18.

On to “DnaJ homolog subfamily B member 1 R61G, P25685”, for which the abundance fitness is -0.406 ± 0.1.

Consider “DnaJ homolog subfamily B member 1 R61I, P25685”, for which the abundance fitness is -0.584 ± 0.13.

“DnaJ homolog subfamily B member 1 R61K, P25685”: the abundance fitness was -0.247 ± 0.16.

With “DnaJ homolog subfamily B member 1 R61L, P25685”, the abundance fitness is -0.527 ± 0.076.

For the substance “DnaJ homolog subfamily B member 1 R61M, P25685”, the abundance fitness was -0.495 ± 0.14.

Substance “DnaJ homolog subfamily B member 1 R61N, P25685” displayed an abundance fitness of -0.425 ± 0.1.

For the substance “DnaJ homolog subfamily B member 1 R61Q, P25685”, the abundance fitness is -0.336 ± 0.093.

“DnaJ homolog subfamily B member 1 R61S, P25685” came in with an abundance fitness of -0.528 ± 0.068.

The substance “DnaJ homolog subfamily B member 1 R61V, P25685” registered an abundance fitness of -0.429 ± 0.077.

Regarding “DnaJ homolog subfamily B member 1 R61W, P25685”, the abundance fitness was -0.897 ± 0.14.

Substance “DnaJ homolog subfamily B member 1 R61Y, P25685” registered an abundance fitness of -0.606 ± 0.13.

Substance “DnaJ homolog subfamily B member 1 S16A, P25685” came in with an abundance fitness of -0.167 ± 0.066.

Substance “DnaJ homolog subfamily B member 1 S16C, P25685” came in with an abundance fitness of -0.185 ± 0.077.

In turn, “DnaJ homolog subfamily B member 1 S16D, P25685” showed an abundance fitness of -0.174 ± 0.09.

“DnaJ homolog subfamily B member 1 S16G, P25685”: the abundance fitness was -0.074 ± 0.055.

Take “DnaJ homolog subfamily B member 1 S16H, P25685”: the abundance fitness was -0.24 ± 0.13.

Substance “DnaJ homolog subfamily B member 1 S16I, P25685” gave an abundance fitness of -0.371 ± 0.11.

“DnaJ homolog subfamily B member 1 S16K, P25685” came in with an abundance fitness of -0.188 ± 0.12.

For “DnaJ homolog subfamily B member 1 S16L, P25685”, the abundance fitness is -0.297 ± 0.053.
